Data taken from PMC11969024, “Development of chemokine network inhibitors using combinatorial saturation mutagenesis” (Communications Biology, 2025).

B1: peptide HD2 (from tick evasin EVA4) / CCL19 (biotinylated, synthetic) (parent)
chain 1: EEDDYTAYAPLTCYFT
chain 2: GTNDAEDCCLSVTQKPIPGYIVRNFHYLLIKDGCRVPAVVFTTLRGRQLCAPPDQPWVERIIQRLQRTSAKMKRRSS
B2: peptide HD2 (from tick evasin EVA4) / CXCL13 (biotinylated, synthetic) (parent)
chain 1: EEDDYTAYAPLTCYFT
chain 2: VLEVYYTSLRCRCVQESSVFIPRRFIDRIQILPRGNGCPRKEIIVWKKNKSIVCVDPQAEWIQRMMEVLRKRSSSTLPVPVFKRKIP
B3: peptide HD2 (from tick evasin EVA4) / CCL22 (biotinylated, synthetic) (parent)
chain 1: EEDDYTAYAPLTCYFT
chain 2: GPYGANMEDSVCCRDYVRYRLPLRVVKHFYWTSDSCPRPGVVLLTFRDKEICADPRVPWVKMILNKLSQ

Variants of: B1
Conditions: with CCL19 (biotinylated, synthetic); scale: log2

Going from chain 1 C13F to chain 1 Y8A, the enrichment falls from -7.6 to -7.75.

Going from chain 1 Y14N to chain 1 A9G, the enrichment falls from -5.87 to -7.67.

Compared with chain 1 P10N, chain 1 Y14T is lower in enrichment: -6.99 for the first, -7.91 for the second.

First: chain 1 C13E
Second: chain 1 D4K
The enrichment of the first is lower: -8.9 for the first, -5.85 for the second.

First: chain 1 D3A
Second: chain 1 D4A
The enrichment of the first is higher: -6 for the first, -7.05 for the second.

First: chain 1 C13Q
Second: chain 1 T12D
The enrichment of the first is lower: -8.35 for the first, -7.63 for the second.

First: chain 1 P10A
Second: chain 1 D3K
The enrichment of the first is lower: -7.68 for the first, -4.33 for the second.

First: chain 1 P10Q
Second: chain 1 D4C
The enrichment of the first is higher: -5.36 for the first, -8.21 for the second.

Going from chain 1 A9D to chain 1 D3I, the enrichment falls from -7.2 to -8.83.

Compared with chain 1 D3H, chain 1 C13K is lower in enrichment: -5.94 for the first, -8.09 for the second.

Compared with chain 1 D3R, chain 1 P10E is lower in enrichment: -6.43 for the first, -6.87 for the second.

Going from chain 1 L11E to chain 1 D4H, the enrichment rises from -7.14 to -6.74.

Compared with chain 1 A9K, chain 1 Y5R is lower in enrichment: -5.6 for the first, -6.02 for the second.

Compared with chain 1 C13G, chain 1 Y14C is higher in enrichment: -9.4 for the first, -7.29 for the second.

Going from chain 1 E1C to chain 1 C13V, the enrichment falls from -8.72 to -10.3.

First: chain 1 C13A
Second: chain 1 P10D
The enrichment of the first is lower: -9.6 for the first, -7.38 for the second.

In the case of chain 1 Y14D, the enrichment is reported as -6.5.

Variants of: B2
Conditions: with CXCL13 (biotinylated, synthetic); scale: log2

First: chain 1 A7C
Second: chain 1 A9C
The enrichment of the first is higher: -8.62 for the first, -8.86 for the second.

Compared with chain 1 A9D, chain 1 A9K is higher in enrichment: -7 for the first, -5.4 for the second.

First: chain 1 C13D
Second: chain 1 C13F
The enrichment of the first is lower: -7.93 for the first, -7.4 for the second.

Going from chain 1 C13G to chain 1 C13H, the enrichment rises from -9.21 to -7.42.

Going from chain 1 C13K to chain 1 C13M, the enrichment falls from -7.9 to -8.29.

Going from chain 1 C13R to chain 1 C13W, the enrichment rises from -9.32 to -8.42.

First: chain 1 D3C
Second: chain 1 D3H
The enrichment of the first is lower: -8.67 for the first, -5.74 for the second.

Compared with chain 1 D3K, chain 1 D3R is lower in enrichment: -4.13 for the first, -6.23 for the second.

First: chain 1 D4C
Second: chain 1 D4K
The enrichment of the first is lower: -8.01 for the first, -5.65 for the second.

Compared with chain 1 D4R, chain 1 D4T is lower in enrichment: -5.86 for the first, -6.65 for the second.

Compared with chain 1 E1C, chain 1 E2C is lower in enrichment: -8.53 for the first, -8.79 for the second.

Going from chain 1 E2K to chain 1 E2R, the enrichment falls from -3.92 to -5.9.

Compared with chain 1 F15D, chain 1 F15H is higher in enrichment: -7.37 for the first, -6.08 for the second.

Compared with chain 1 F15K, chain 1 F15N is higher in enrichment: -5.78 for the first, -5.51 for the second.

Going from chain 1 L11D to chain 1 L11E, the enrichment rises from -7.86 to -6.94.

First: chain 1 L11G
Second: chain 1 L11K
The enrichment of the first is lower: -9.02 for the first, -5.76 for the second.

Compared with chain 1 L11P, chain 1 L11Q is higher in enrichment: -6.87 for the first, -5.03 for the second.

Going from chain 1 P10C to chain 1 P10F, the enrichment rises from -8.5 to -8.19.

Compared with chain 1 P10I, chain 1 P10K is higher in enrichment: -7.21 for the first, -5.74 for the second.

Going from chain 1 P10Q to chain 1 P10R, the enrichment falls from -5.17 to -7.85.

First: chain 1 P10T
Second: chain 1 P10Y
The enrichment of the first is higher: -6.64 for the first, -7.34 for the second.

Going from chain 1 T12E to chain 1 T12G, the enrichment falls from -6.73 to -9.07.

First: chain 1 T12K
Second: chain 1 Y5C
The enrichment of the first is higher: -6.36 for the first, -7.94 for the second.

First: chain 1 Y5K
Second: chain 1 Y5R
The enrichment of the first is higher: -4.37 for the first, -5.82 for the second.

First: chain 1 Y5T
Second: chain 1 Y8C
The enrichment of the first is higher: -6.44 for the first, -8.46 for the second.

Going from chain 1 Y8K to chain 1 Y8P, the enrichment falls from -4.84 to -6.64.

Compared with chain 1 Y8R, chain 1 Y14A is lower in enrichment: -6.96 for the first, -8.81 for the second.

Going from chain 1 Y14D to chain 1 Y14E, the enrichment falls from -6.3 to -7.54.

First: chain 1 Y14G
Second: chain 1 Y14I
The enrichment of the first is lower: -9.28 for the first, -6.05 for the second.

Compared with chain 1 Y14K, chain 1 Y14L is lower in enrichment: -6.94 for the first, -9.26 for the second.

First: chain 1 Y14N
Second: chain 1 Y14P
The enrichment of the first is higher: -5.67 for the first, -7.63 for the second.

Going from chain 1 Y14Q to chain 1 Y14R, the enrichment falls from -6.82 to -8.87.

Work on chain 1 Y14S yielded an enrichment of -8.45.

Variants of: B3
Conditions: with CCL22 (biotinylated, synthetic); scale: log2

Compared with chain 1 A7C, chain 1 A9C is lower in enrichment: -9.84 for the first, -10.1 for the second.

Going from chain 1 A9D to chain 1 A9I, the enrichment falls from -8.23 to -9.99.

First: chain 1 A9P
Second: chain 1 C13K
The enrichment of the first is higher: -7.8 for the first, -9.12 for the second.

First: chain 1 C13Q
Second: chain 1 C13R
The enrichment of the first is higher: -9.37 for the first, -10.5 for the second.

Going from chain 1 D3C to chain 1 D3Q, the enrichment rises from -9.89 to -4.99.

Compared with chain 1 D3R, chain 1 D4C is lower in enrichment: -7.45 for the first, -9.24 for the second.

Going from chain 1 D4G to chain 1 D4H, the enrichment falls from -6.22 to -7.77.

First: chain 1 D4K
Second: chain 1 D4R
The enrichment of the first is higher: -6.88 for the first, -7.09 for the second.

First: chain 1 D4T
Second: chain 1 E1C
The enrichment of the first is higher: -7.88 for the first, -9.75 for the second.

Going from chain 1 E2C to chain 1 E2R, the enrichment rises from -10 to -7.13.

Going from chain 1 P10A to chain 1 P10C, the enrichment falls from -8.71 to -9.72.

Going from chain 1 P10H to chain 1 P10I, the enrichment falls from -7.95 to -8.44.

First: chain 1 P10K
Second: chain 1 P10M
The enrichment of the first is higher: -6.96 for the first, -8.5 for the second.

First: chain 1 P10N
Second: chain 1 P10Q
The enrichment of the first is lower: -8.02 for the first, -6.39 for the second.

Compared with chain 1 P10R, chain 1 P10S is lower in enrichment: -9.08 for the first, -9.19 for the second.

Compared with chain 1 P10T, chain 1 P10V is lower in enrichment: -7.86 for the first, -10.4 for the second.

Compared with chain 1 Y5G, chain 1 Y5K is higher in enrichment: -7.11 for the first, -5.6 for the second.

Compared with chain 1 Y5P, chain 1 Y5Q is higher in enrichment: -6.73 for the first, -5.36 for the second.

Going from chain 1 Y5R to chain 1 Y8E, the enrichment rises from -7.05 to -6.18.

Compared with chain 1 Y8G, chain 1 Y8H is higher in enrichment: -8.71 for the first, -7.57 for the second.

First: chain 1 Y8I
Second: chain 1 Y8K
The enrichment of the first is lower: -9.38 for the first, -6.07 for the second.

Compared with chain 1 Y8M, chain 1 Y8N is higher in enrichment: -8.49 for the first, -8.13 for the second.

Compared with chain 1 Y8P, chain 1 Y8Q is higher in enrichment: -7.86 for the first, -6.36 for the second.

Compared with chain 1 Y8R, chain 1 Y8T is lower in enrichment: -8.18 for the first, -8.48 for the second.
